In article PMC5839780 (The Journal of Cell Biology, 2018):
Positions count from the first letter of the chain named.

T1: HMmm1s–Mdm12 complex (K. lactis) (Kluyveromyces lactis, UniProt Q6CJU9+Q6CUC3)
T1 sequence (Q6CJU9 179-434): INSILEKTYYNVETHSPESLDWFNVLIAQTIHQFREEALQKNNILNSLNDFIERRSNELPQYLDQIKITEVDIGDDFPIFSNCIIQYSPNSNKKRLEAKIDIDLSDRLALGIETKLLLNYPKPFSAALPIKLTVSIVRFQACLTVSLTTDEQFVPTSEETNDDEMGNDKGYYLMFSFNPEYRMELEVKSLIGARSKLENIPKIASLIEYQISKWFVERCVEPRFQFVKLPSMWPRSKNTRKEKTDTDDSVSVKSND
T1 sequence (Q6CUC3 1-239): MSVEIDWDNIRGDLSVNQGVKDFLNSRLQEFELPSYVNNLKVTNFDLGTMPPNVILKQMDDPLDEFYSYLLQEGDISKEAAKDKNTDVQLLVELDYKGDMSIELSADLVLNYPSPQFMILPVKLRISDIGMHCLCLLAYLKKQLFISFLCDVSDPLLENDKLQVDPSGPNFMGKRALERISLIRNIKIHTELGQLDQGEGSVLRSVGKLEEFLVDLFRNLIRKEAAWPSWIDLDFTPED

T2: N-terminally His6-tagged K. lactis Mmm1s (179–434) V190S (Kluyveromyces lactis, UniProt Q6CJU9 179-434, V190S)
T2 sequence (looked up): T1 sequence (Q6CJU9 179-434) with V12S

T3: N-terminally His6-tagged K. lactis Mmm1s (179–434) L274S (Kluyveromyces lactis, UniProt Q6CJU9 179-434, L274S)
T3 sequence (looked up): T1 sequence (Q6CJU9 179-434) with L96S

T4: N-terminally His6-tagged K. lactis Mmm1s (179–434) I369S (Kluyveromyces lactis, UniProt Q6CJU9 179-434, I369S)
T4 sequence (looked up): T1 sequence (Q6CJU9 179-434) with I191S

B1: KlMdm12 (residues 1–239 of K. lactis Mdm12), nontagged (domain or fragment, Kluyveromyces lactis, UniProt Q6CUC3 1-239, looked up)
chain: T1 sequence (Q6CUC3 1-239)

Tests used:
[1] = target: T1, HMmm1s–Mdm12 complex (K. lactis); experiment: NBD dequenching lipid transfer between liposomes; type: biochemical; details: 12.5 µM donor and 50 µM acceptor liposomes; pH 7.5; labelled compound
[2] = target: T2, N-terminally His6-tagged K. lactis …; experiment: co-purification of a coexpressed complex
[3] = target: T3, N-terminally His6-tagged K. lactis …; experiment: co-purification of a coexpressed complex
[4] = target: T4, N-terminally His6-tagged K. lactis …; experiment: co-purification of a coexpressed complex

Row | Molecule | NBD-PS transferred after 10 s [1] | binding result [2] | binding result [3] | binding result [4]
1 | CCCCCCCC/C=C\CCCCCCCC(=O)OC[C@H](COP(=O)(O)OC[C@H](Nc1ccc([N+](=O)[O-])c2nonc12)C(=O)O)OC(=O)CCCCCCC/C=C\CCCCCCCC [NBD-PS, 1,2-dioleoyl-sn-glycero-3-phospho-L-serine-N-(7-nitro-2-1,3-benzoxadiazol-4-yl)] | Efficiency of NBD-PS transfer between liposomes by HMmm1s–Mdm12 was threefold higher | – | – | –
2 | B1 | – | binds | binds | binds
